Measurements published in article PMC3201875.

Legend:
SBP-tagged LeishIF4E-1 = assay: pull-down
SBP-tagged LeishIF4E-4 = assay: pull-down

Row | Substance | percent of the total protein in the elution fraction (SBP-tagged LeishIF4E-1) | percent of the total protein in the elution fraction (SBP-tagged LeishIF4E-4)
1 | Leishmania 4E-Interacting Protein (Leish4E-IP) (natural protein) | 14% | 
2 | LeishIF4A-1 (natural protein) | 3% | 3.4%
3 | LeishIF4G-3 (natural protein) |  | 9%
